Source: PMC8877407
Values joined by “and” are separate entries in the source; they are usually repeats but may differ in a detail not shown here. Equal values may be shown once.

Target: recombinant L. infantum GDP-mannose pyrophosphorylase (LiGDP-MP) (Leishmania infantum)
Experiment: SEC; Superdex 200 10/300 GL, 50 mM Tris-HCl pH 7.5, 1 M NaCl, 1 mM DTT, 10% glycerol; concentrated Ni-NTA fractions loaded; sizes estimated from elution volumes against standard proteins

stoichiometry N: 6 and 3
Substance: recombinant L. infantum GDP-mannose pyrophosphorylase (LiGDP-MP) (enzyme)
